± gives the standard deviation of the averaged measurements.
What follows are sequences tested on ATP (assay: switch fluorescence ratio, 500 uM ATP over buffer (Cy3 cluster intensity, sum of 5 cycles each) (fold (ratio)); higher = stronger signal-on switching upon ATP binding; sequences stand for … in TCGTCGGCAGCGTCAGATGTGTATAAGAGACAGTTTTTTTTTTTTTTTTTTTTTTTTT…TC). Conditions: aptamer strand: ATP DNA aptamer (quencher-CACCTGGGGGAGTATTGCGGAGGAAGG + anchor), 100 nM annealed; ATP concentration: 500 uM.
Summary of the method: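 Per cluster, summed Cy3 intensity from the target cycles was divided by that from the buffer cycles to give the fluorescence ratio, then averaged per switch-domain sequence. Clusters outside 100-1000 RFU were excluded. The Cy3-labelled switching-strand clusters, on a modified Illumina MiSeq flow-cell, were annealed to 100 nM quencher-labelled ATP aptamer and imaged in selection buffer, then after 15 min with 500 uM ATP at 22 °C, for five cycles with NaOH stripping and re-annealing between them.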
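Also: ATP exposure 15 min at 22 °C before imaging.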

| Sequence | switch fluorescence ratio |
| --- | --- |
| TTTGGCTAGT | 1.01 ± 0.019 |
| TCTCGGATGT | 0.99 ± 0.039 |
| TGGAGATTTT | 1.015 ± 0.0062 |
| AAACATAAAG | 0.995 ± 0.027 |
| AATAAGGGAT | 1.01 ± 0.045 |
| TTGGGAACTA | 1.01 ± 0.02 |
| GAGCTACGGG | 1.01 ± 0.033 |
| GCTAGAATGT | 1 ± 0.019 |
| CGTTACAAGC | 1.1 ± 0.086 |
| TTGCCGCTTG | 1.21 ± 0.33 |
| CGGGGGGTCG | 1.04 ± 0.069 |
| GGGGGGGGAA | 1.01 ± 0.063 |
| TGGTCCACTG | 1.009 ± 0.0057 |
| TTATGGGGTA | 1.04 ± 0.049 |
| AGATCAAGAG | 0.974 ± 0.04 |
| GGGGGCGCCA | 1.02 ± 0.02 |
| ATTATCAGCG | 1.01 ± 0.019 |
| TGGGAGTCGC | 0.97 ± 0.027 |
| GATCTAGAGG | 0.994 ± 0.019 |
| ATTACCTATA | 1.05 ± 0.044 |
| CTTGTCGATT | 0.999 ± 0.04 |
| GGGGGACCGT | 1.01 ± 0.024 |
| ACGTAATAGC | 2.07 ± 0.13 |
| CGGGATCTGG | 0.977 ± 0.015 |
| ATAGGTTAGA | 1.06 ± 0.14 |

| Sequence | switch fluorescence ratio |
| --- | --- |
| AGACAAAGCG | 1.03 ± 0.035 |
| TTTAGCTGGG | 1.01 ± 0.019 |
| TTTCTGGCGG | 1.02 ± 0.025 |
| ATGAAGGGAG | 0.991 ± 0.061 |
| TTAACGTAAG | 1 ± 0.037 |
| GGGACCGGTG | 1.03 ± 0.02 |
| ATAAGCTGGT | 0.953 ± 0.021 |
| TTCCGGCTAT | 1.15 ± 0.064 |
| TGTTTTAAAG | 1.01 ± 0.061 |
| CCGGGTAAGG | 0.9989 ± 0.0045 |
| CGATAGGTGG | 0.975 ± 0.094 |
| TGATGTTATG | 0.9911 ± 0.0025 |
| GGGGCCGTAA | 0.992 ± 0.025 |
| TCTTTTCATT | 0.994 ± 0.022 |
| GAGGGTGGCC | 1.03 ± 0.031 |
| TCGGTTGGTG | 0.969 ± 0.042 |
| CTTACTGCAT | 1.27 ± 0.068 |
| TGTTGGTCTG | 0.978 ± 0.031 |
| TGGATTAGGG | 1 ± 0.023 |
| TTTGTCTGTT | 1.03 ± 0.038 |
| CCTTCTTGGG | 1.015 ± 0.0033 |
| CCAGATTGGG | 1.004 ± 0.0052 |
| CCTATTATTT | 1 ± 0.051 |
| TAAAAATGGT | 1.01 ± 0.024 |
| GATGAGGATT | 1.01 ± 0.011 |

| Sequence | switch fluorescence ratio |
| --- | --- |
| AAGGGTGTTG | 1.01 ± 0.017 |
| ATTGCATTTT | 1.28 ± 0.43 |
| GGGGTAGATC | 1.05 ± 0.013 |
| GTTATTGTAT | 0.977 ± 0.014 |
| GGAACGAGAG | 0.989 ± 0.03 |
| GCGCTACGTG | 1.01 ± 0.026 |
| TTTTTTATGG | 1.01 ± 0.031 |
| GCGATCAGAG | 1.04 ± 0.037 |
| TCGGAATGGG | 0.975 ± 0.017 |
| GCATTGTGTA | 0.9995 ± 0.003 |
| AGCGTGAGGG | 1.02 ± 0.018 |
| AAGAATCTGC | 0.985 ± 0.051 |
| CACGATTACT | 1.281 ± 0.0018 |
| TAACGGTTG | 0.98 ± 0.017 |
| ACGCTGCTAC | 4.48 ± 0.3 |
| AGGTGTTTAC | 1.01 ± 0.011 |
| GCGGGACGTG | 0.9857 ± 0.0098 |
| CATTTGTATT | 1.01 ± 0.038 |
| GGGAGGGATA | 0.995 ± 0.02 |
| ACATTAAGGG | 1.06 ± 0.031 |
| TTTGACGAAT | 1.012 ± 0.0081 |
| TTAAATAATC | 1 ± 0.035 |
| AAGCGGGAGC | 1.026 ± 0.0049 |
| ATGCCGATCG | 1.05 ± 0.021 |
| AAGGAGGGAC | 0.982 ± 0.011 |

| Sequence | switch fluorescence ratio |
| --- | --- |
| AAGTTGGGTG | 1 ± 0.025 |
| TCGAAAGTCT | 0.995 ± 0.012 |
| GTGATGTCTC | 1.008 ± 0.0091 |
| TTCGTGCATC | 1.06 ± 0.026 |
| TGCCGGTTGC | 0.99 ± 0.12 |
| AGAGAGGTTA | 1.02 ± 0.014 |
| GAGGAGGGTT | 0.992 ± 0.051 |
| TTATTTGGAG | 0.986 ± 0.025 |
| GGTCGCACGG | 1.02 ± 0.026 |
| CTTAACTTGA | 1 ± 0.025 |
| TGTTAGGGCT | 0.918 ± 0.021 |
| GTTGCAAAAA | 1.18 ± 0.32 |
| TATTGGTCGG | 0.993 ± 0.036 |
| GTGGCAAAGT | 0.9678 ± 9.7e-05 |
| CGAAAAGGGA | 1.01 ± 0.029 |
| GAACTGGCGC | 1.02 ± 0.096 |
| TTAGGGGGGC | 1.02 ± 0.053 |
| TTTAAGGGTG | 1.07 ± 0.037 |
| GCTACGCAGC | 3.05 ± 1.8 |
| AATGCTTGAG | 1.05 ± 0.08 |
| GTGGAAAGAT | 1.01 ± 0.018 |
| AAAGGATATG | 0.995 ± 0.018 |
| GATCGGGGGT | 1.01 ± 0.027 |
| CCAGCAGCGG | 1.12 ± 0.063 |
| TTTTTCTACA | 1.11 ± 0.12 |

| Sequence | switch fluorescence ratio |
| --- | --- |
| CAGGGGGTAA | 1.01 ± 0.069 |
| TTTTTAACTT | 0.995 ± 0.022 |
| AAAAAATGTG | 0.99 ± 0.031 |
| GTAATGTATC | 1.03 ± 0.046 |
| TTACTTTCCG | 1.11 ± 0.019 |
| TTTTCGGGGG | 1 ± 0.04 |
| GAAAAGGGTG | 0.99 ± 0.051 |
| TAAGACCAGT | 0.981 ± 0.034 |
| ATGGCGAATT | 0.995 ± 0.073 |
| TGATTTCACG | 1.02 ± 0.011 |
| TTCGGCGGCA | 1.02 ± 0.036 |
| TGGAAAGGCG | 1.04 ± 0.06 |
| ATCGAAGGTC | 0.999 ± 0.015 |
| TTTTTTACCA | 1.01 ± 0.036 |
| AGAAGGGCCC | 0.9967 ± 0.0016 |
| TTTGTTCGTT | 1.01 ± 0.029 |
| TGGGGGTCAT | 1.05 ± 0.061 |
| CCCGGGGGGA | 1.55 ± 0.7 |
| AGGACTGGCA | 0.991 ± 0.038 |
| ATAATTGTTC | 0.99 ± 0.031 |
| TTAGTGATGT | 1.03 ± 0.0097 |
| TCAGTGTGCT | 0.98 ± 0.014 |
| GGTGGTCGAG | 0.989 ± 0.02 |
| GCAGGTTCAG | 0.975 ± 0.021 |
| TTCCGCGCAG | 1.18 ± 0.016 |

| Sequence | switch fluorescence ratio |
| --- | --- |
| AGGGTGACCT | 1.17 ± 0.15 |
| GATTAAATAC | 1.24 ± 0.064 |
| TTGGCAAGCT | 1.06 ± 0.072 |
| TCAAAGCGTT | 0.986 ± 0.031 |
| TTGAAGGGTC | 0.981 ± 0.057 |
| GGGAATGCTT | 1.016 ± 0.0054 |
| CAGTACCGGA | 0.9935 ± 0.0044 |
| CGTCGGAGTC | 1.04 ± 0.031 |
| CGGTAGTGAG | 1.04 ± 0.014 |
| ATAAGGAGTA | 1 ± 0.016 |
| CGGTTTCGTG | 0.995 ± 0.018 |
| TAATTTTATG | 0.998 ± 0.025 |
| AAAGGGGTG | 1.06 ± 0.016 |
| ACATCCATTT | 1.02 ± 0.05 |
| AGTATTCTTA | 0.99324 ± 0.00072 |
| CGTGTCGACA | 0.9631 ± 0.0068 |
| ATGTAATAA | 1.022 ± 0.0049 |
| AGTGTTGGGC | 1.05 ± 0.023 |
| AATGAGTGGG | 1 ± 0.041 |
| AAACTGTTTG | 0.996 ± 0.024 |
| TTTACTCGCG | 1 ± 0.038 |
| GCGAGTCTCG | 1.03 ± 0.044 |
| CACGGGGCTT | 1.02 ± 0.021 |
| TGTCACCAGT | 1.02 ± 0.016 |
| TTTTCGTGCT | 0.956 ± 0.05 |

| Sequence | switch fluorescence ratio |
| --- | --- |
| AGTATTTAGT | 1.003 ± 0.0092 |
| ACCAATTGAA | 1.01 ± 0.05 |
| TTTTCGTAAT | 2.26 ± 1.9 |
| CCGCATGCTT | 2.76 ± 2 |
| AAGTGGAATG | 1.02 ± 0.03 |
| GGGTTAATGA | 1 ± 0.048 |
| GCGGTGACGG | 1 ± 0.062 |
| CGTCTGGCGA | 1.02 ± 0.014 |
| CGCATAGGCC | 1.77 ± 0.2 |
| TTTGTGTCTG | 0.998 ± 0.012 |
| AAAGTCTACA | 1.03 ± 0.024 |
| GACTGAAAAA | 0.981 ± 0.14 |
| GTTTAACCCG | 1.002 ± 0.0033 |
| ATTTTTTTTA | 0.974 ± 0.024 |
| CTAAGCAGGG | 1.01 ± 0.016 |
| GGACAAAAGA | 0.984 ± 0.011 |
| CAGAATTGAG | 0.995 ± 0.0026 |
| AGTTTGGCTT | 0.99 ± 0.011 |
| GGGGGGTCCG | 1.01 ± 0.074 |
| GGCCGAAGCG | 1.07 ± 0.049 |
| TCAGGGGTGT | 1.08 ± 0.024 |
| GAGGGAGTTG | 0.997 ± 0.017 |
| TGAAAAAGGT | 0.9993 ± 0.0021 |
| TCTTGCGTCG | 0.976 ± 0.023 |
| AGCTCGCCAC | 1.05 ± 0.046 |

| Sequence | switch fluorescence ratio |
| --- | --- |
| TGGTGGTGTC | 0.985 ± 0.05 |
| CGTTTTGAGG | 0.96 ± 0.034 |
| ACCTACTGAG | 1.351 ± 0.0076 |
| TGCCTTGGGG | 1.07 ± 0.16 |
| TCTGAATGG | 1.01 ± 0.033 |
| GGGGTGCCTG | 0.999 ± 0.039 |
| CTATCGGGAG | 0.9831 ± 0.0025 |
| GCAATTCTAC | 3.085 ± 0.025 |
| CTGTCCGGTA | 1.056 ± 0.008 |
| TATGGCAAGG | 1.03 ± 0.051 |
| ACACCGGGTC | 1.21 ± 0.071 |
| TTCCTCCCGT | 2.01 ± 0.95 |
| ATTTCCTTTG | 1.021 ± 0.006 |
| AGGTTTATGT | 1.0099 ± 0.00068 |
| CCGTGGGGGG | 1.02 ± 0.083 |
| TTCTTTGACG | 1.09 ± 0.077 |
| ATAGTGATCG | 0.994 ± 0.042 |
| GCGTGAGCAC | 0.9745 ± 0.0089 |
| TAAGACAGGG | 1.02 ± 0.028 |
| TTAAGGTTAA | 1 ± 0.029 |
| TACAAGAATA | 0.986 ± 0.03 |
| ACCTGGAATT | 1.01 ± 0.031 |
| GTCGAAAGGG | 1.01 ± 0.05 |
| ATTAGTTGGG | 1.0052 ± 0.00057 |
| GCTGGGATTA | 0.984 ± 0.012 |

From the supplement of paper PMC10126150
